No end group written: not given here.
Target: recombinant LDHA (human, UniProt P00338 1-332)
Assay: fluorescence polarisation

AQRMNTAFTP (peptide, UniProt Q8NFG4 219-228, looked up, also: rhodamine B label (position not given here)) [FLCN-10 peptide (aa 219-228), rhodamine B-labeled]
binding result: binds

— paper PMC9278990 (Nature structural & molecular biology, 2021)
